Results taken from patent publication US20140017235A1.

Molecular target: human NGF (human) (UniProt P01138)
Experiment: cell-based or functional assay

Sequence of human NGF (human) (P01138 122-241 limits assumed): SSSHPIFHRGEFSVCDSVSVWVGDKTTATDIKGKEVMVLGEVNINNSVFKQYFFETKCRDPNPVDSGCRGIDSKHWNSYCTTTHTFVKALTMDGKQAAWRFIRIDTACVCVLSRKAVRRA

mouse antibody 911 (Fab) showed an antibody concentration that totally blocked NGF-elicited survival of trigeminal neurons of 20 nM.
